In assay [1] the target is T1, Thrombin (Homo sapiens, UniProt P00734).
T1 construct: purchased Haematologic Technologies
Description: Chromogenic substrate enzyme inhibition assay, thrombin. The settings on record: substrate S2366, read-out: KD1 IC50. It is filed as biochemical. The text has this: (§1) The following synthetic substrates were used to measure enzyme activities: Spectrozyme® fvIIa (American Diagnostica, Stamford, Conn.) for HGFA and ChromozymtPA (Roche Molecular Biochemicals, Indianapolis, Ind.) for tissue factor/FVIIa. The following substrates were from Diapharma, Westchester, Ohio: S2222 for factor Xa, S2302 for plasma kallikrein, S2366 for activated protein C, thrombin, hepsin and plasmin, S2444 for uPA, S2288 for factor XIa, FXIIa and tPA, S2765 for matriptase complement factor C1s, chymotrypsin and trypsin. Except for bovine trypsin (Worthington, Lakewood, N.J.), all enzymes used were of human origin. Factor Xa, factor XIa, thrombin, activated protein C and plasmin were from Haematologic Technologies (Essex Junction, Vt.). […]
(§2) The inhibitory activity of KD1 towards a panel of trypsin-like serine proteases was examined using assay conditions as described for measuring the inhibitory activity of HAI-1B ectodomain. […] After 20 min. incubation at room temperature, the appropriate substrate was added and the linear rates of substrate hydrolysis were determined by measuring the change in absorbance at 405 nm on a kinetic microplate reader (Molecular Devices, Sunnyvale, Calif.). […]

Assay [2] concerns the target T2, uPA (Homo sapiens, UniProt P00749).
T2 construct: purchased Chemicon
Description: Chromogenic substrate enzyme inhibition assay, uPA. It is filed as biochemical. The settings on record: substrate S2444, read-out: KD1 IC50.
Source text: as §1, §2

One may read the pIC50 as −log10 of the IC50, conventionally taken in molar units.

pIC50: −log10 of the molar value.

Turning to “KD1: The first Kunitz domain of human HAI-1B, amino acids 246-303 (SEQ ID NO: 4), with polyhistidine leader, expressed in E. coli”, the negative-log IC50 (pIC50) in assay [1] and in assay [2] was below 6.00 each time.

Source of the values: patent publication US7741096B2, “Crystal structure of hepatocyte growth factor activator complexed with Kunitz domain inhibitor” (Genentech, Inc., priority 2004, dated 2010).
